Test results: the nanobody polyreactivity screen of Harvey et al. (2022)

assay: yeast display, Sf9 membrane polyspecificity reagent, FACS + sequencing; frameworks hold sequencing errors
Method in brief: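 In a synthetic yeast display library (Saccharomyces cerevisiae BJ5465), nanobody expression was induced with galactose for 36–48 hours. FACS gates were set low and high (top ~1%) using anti-HA fluorescence for expression and streptavidin fluorescence for binding of the Sf9 membrane reagent. Each polyreactivity label is drawn from the gate of origin.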

Sequence | polyreactivity (PSR sort gate)
QVQLVESGGGLVQAGGSLRLSCAASGRIIGFNAMGWYRQAPGKEMELVASIRTTGGSTRYADSVKGRFTISRDNAKNTVYLQMNSLKREDTAVYYCAARWGKTLWQYNYWGQGTQVTVSS | high polyreactivity
QVQLVESGGGLVQAGGSLRLSCAASGRIIGKNVMGWSRQAPGKDRELVAAISNSGGSTYYADSVKGRFTISRDNAKNTVYLQMNSLKPEDTAVYYCAVDTSYYDYWGQGTQVTVSS | high polyreactivity
QVQLVESGGGLVQAGGSLRLSCAASGRIIGLYTMGWYRQAPGKERELVAAINIRGTRTYYADSVKGRFTISRDNAKNTVYLQMNSLKPEDTSVYYCARSPVVVGSFLSYDYWGQGTQVTVSS | high polyreactivity
QVQLVESGGGLVQAGGSLRLSCAASGRIIGLYTMGWYRQAPGKERELVAAINIRGTRTYYADSVKGRFTISRDNAKNTVYLQMTSLKPEDTAVYYCNAYPKSWELDYWGLGTQVTVSS | high polyreactivity
QVQLVESGGGLVQAGGSLRLSCAASGRIIGYNAMGWYRQAPGKERELVATITYGGGRTYYADSVKGRFTISRDNAKNTVYLQMNSLKPEDTAVYYCAAKHRFPIPGFGYWGQGTQVTVSS | low polyreactivity
QVQLVESGGGLVQAGGSLRLSCAASGRIIKYYTMGWYRQAPGKERELVASITGTGGSTYYADSVKGRFTISRDNAKNTVYLQMNSLKPEDTAVYYCAARLSVLGGYRGRNAWRFDHWGQGTQVTVSS | high polyreactivity
QVQLVESGGGLVQAGGSLRLSCAASGRIILGYAMGWYRQAPGKERELVARITWSGGSTYYADSVKGRFTISRDNAKNTVSLQMNSLKPEDNAVYYCAKRTYYSYPDGYWGQGTQVTVSS | high polyreactivity
QVQLVESGGGLVQAGGSLRLSCAASGRIIRSYAMGRYRQAPRKERELVDAITTGGRTYYADSVKGRFTISRDNAKNTVYLQMNSLKPEDTAVYYCNSALVYRGTDTNDYWGQGTQVTVSS | high polyreactivity
QVQLVESGGGLVQAGGSLRLSCAASGRIIRWYAMAWYRQAPGKERELVAAITWRGGSTDYADSVKGRFTISRDNAKNTVYLQMNSLKPEDTAVYYCNAAGFKTSWYYYGDWYDYWGQGTQVTVSS | high polyreactivity
QVQLVESGGGLVQAGGSLRLSCAASGRIISSYAMGWYRQAPGKERELVAAITSSGGSTYYADSVKGRFTISRDNAKNTVYLQMNSLKPEDTAVYYCAARVFARYYTAYGVETRREEDYWGQGTQVTVSS | low polyreactivity
QVQLVESGGGLVQAGGSLRLSCAASGRIITAYYAMGWYRQAPGKERELVASISSSGTSTYADSVKGRFTISRDNAKNTVYLQMNSLKPEDTAVYYCATRKLRTRRYDYGYWGQGTQVTVSS | low polyreactivity
QVQLVESGGGLVQAGGSLRLSCAASGRIITRYAMGWYRQAPGKERELVAAISSGGSTYYADSVKGRFTISRDNAKNTVYLQMNSLKPEDTAVYYCARGWSGAYAGGYWGQGTQVTVSS | high polyreactivity
QVQLVESGGGLVQAGGSLRLSCAASGRIITYNAMGWYRQAPGKERELVAAISTTGGRTYYADSVKGRFTISRDNAKNTVYLQMNSLKPEDTAVYYCNAVLKRPLAYHVTYDYWGQGTQVTVSA | high polyreactivity
QVQLVESGGGLVQAGGSLRLSCAASGRIIVLYAMGWYIQAPGKERELVASIRSGGSTNYADSVKGRFTISRDNAKNTVYLQMNSLKPEDTAVYYCAARIRSVVPFDMDYWGQGTQVTVSS | low polyreactivity
QVQLVESGGGLVQAGGSLRLSCAASGRIIVRNAMGWYRQAPGKERELVAAISGSGSRTYYADSVKGRFTISRDNAKNTVYLQMNSLNPEDTAVYYCAASGYWPFRSGFGYWGQGTQVTVSS | high polyreactivity
QVQLVESGGGLVQAGGSLRLSCAASGRIIYGNALGWYRQAPGKERELVAAITSGGSTNYADSVKGRFPISRDNAKNTVYLQMNSLIPEDTAVYYCNAVVYSAYRYEYWGQGTQVTVSS | low polyreactivity
